Changes are numbered by the printed parent chain.
B1: M3A06 (antibody, V domains shown)
VH: EVQLVESGGGLVKPGGSLRLSCAASGFTLTSYSMNWVRQAPGKGLEWVSSISSSSSYIHYADSVKGRFTISRDNAKNSVYLQMNSLRAEDTAAYYCARVARELDPFDMWGQGTVVTVAS
VL: QSVLTQPPSVSGAPGQRVTISCTGSSSNIGAGYDVHWYQQLPGTAPKLLVYANNNRPSGVPDRFSGSKSGTSASLAITGLQADDEADYYCQSYDRSLSGSVFGGGTKLTVL
B2: M3B02 (antibody, V domains shown)
VH: EVQLVESGGGLVKPGGSLRISCVASEFTLSGYAMNWVRQVPGKGLEWVSSISSSSSYINYADFVKGRFTISRDNAKNSVFLQLNSLRPEDTALYYCVRERPTAILPYLDLWGRGTLVTVSS
VL: B1 VL with H36Q, L41S, V50I, Y51H, A52G, D83E, S100W
B3: M4A05 (antibody, V domains shown)
VH: EVQLVESGGGLVKPGGSLRLSCAAFGFSLSGYGMNWVRQAPGKGLQWVSSITASSSYITYRDSLRGRFTISRDNAQNSLYLDMTALRVEDTAVYYCATNGKLPPYFDHWGQGVLVVVSS
VL: QSVLTQPPSVSGAPGQRVTISCTGSGSNIGAGYDVHWYQQLPGTAPKLLIYDNNHRASGVPDRVSASWSGTSASLAITGLQAEDEADYYCQSYDRNLEGVVFGGGTKLTVL
B4: M4A11 (antibody, V domains shown)
VH: QVQLVQSGSEVKRPGASVRVSCTASGYTFSNYGVSWMRQAPGHGLEWMGWISTHNQNVRYSQNFQGRVTVTTDTSTSTAYMDLRGLKPDDTAVYFCARMIPVGTTYTPYWTGWTPGGMDIWGQGTTVIVSS
VL: QSVLTQPPSASGTPGQRVIMSCSGTTSNIGRNFVYWYQQLPKEAPTLLIYGNDQRPAGVPDRFSGSTSGTSASLAISGLRSGDEADYYCATWDDSVNGPVFGGGTKLTVL
B5: M4A02 (antibody, V domains shown)
VH: EVQLVESGGGLVEPGGSLRLSCAASGFMFTSYAMHWVRQAPGRGLEWVSSITGGGNFVEYAVSVQGRFTVSRDNNQNSLYLQMNSLRVEDTAMYYCAREDYNSGANLHWFDPWGQGTLVTVSS
VL: QSVLTQPPSVSGAPGQRVTISCTGSSSNIGAFFDVHWYSHLPGTAPKLLIYGDRNRPSGVPERFSGSKSGASASLTITGLRAEDEADYYCQSYDRGLSAWVFGGGTRVTVL

The binders below were run on F protein of hMPV A virus (human metapneumovirus subtype A) (assay: cell-based or functional assay).

First: B1
Second: B2
The PRNT IC50 of the first is 3.4-fold lower: 0.31 µg/mL for the first, 1.06 µg/mL for the second.

First: B3
Second: B4
The PRNT IC50 of the first is lower: 0.0569 µg/mL for the first, > 10 µg/mL for the second.

B5 showed a PRNT IC50 of 0.186 µg/mL.

These binders were tested on F protein of RSV B/Washington virus (respiratory syncytial virus B, Washington strain) (assay: cell-based or functional assay).

In order of rising PRNT IC50:
1. B2  0.0153 µg/mL
2. B1  0.0274 µg/mL
3. B3  0.0295 µg/mL
4. B5  0.0364 µg/mL

Each binder was assayed on F protein of hMPV B virus (human metapneumovirus subtype B) (assay: cell-based or functional assay).

Going from B1 to B2, the PRNT IC50 rises from 0.416 µg/mL to 1.54 µg/mL (3.7-fold).

First: B3
Second: B4
The PRNT IC50 of the first is lower: 0.0425 µg/mL for the first, > 10 µg/mL for the second.

Work on B5 yielded a PRNT IC50 of 0.0927 µg/mL.

— patent publication US20240327502A1
